The values that follow come from article doi:10.1101/2024.11.16.623948, “Biochemical principles of miRNA targeting in flies”.

Series [1] has as its target T1, FLAG-Ago1 (Drosophila melanogaster, UniProt A1Z9J5 1-950). The series is described as follows: RBNS; let-7 guide; RBNS: 20 mM HEPES-KOH pH 7.9, 100 mM KOAc, 3.5 mM Mg(OAc) (magnesium acetate), 0.05% CHAPS, 2 mM DTT, 8% glycerol, BSA, tRNA, 25 C 2 h; filter binding: 25 mM HEPES-KOH pH 7.9, 110 mM KOAc, 3.5 mM magnesium acetate, 2 mM DTT, BSA, tRNA, 8% glycerol, 25 C 2 h; competition: 18 mM HEPES-KOH pH 7.4, 100 mM KOAc, 3 mM magnesium acetate, 5 mM DTT, 0.01% IGEPAL, tRNA, 25 C 1 h. The note with it: protein: recombinant, tags: FLAG.

Series [2] deals with T1, FLAG-Ago1. The series is described as follows: RBNS; miR-11 guide; G:U site analysis; RBNS: 20 mM HEPES-KOH pH 7.9, 100 mM KOAc, 3.5 mM Mg(OAc) (magnesium acetate), 0.05% CHAPS, 2 mM DTT, 8% glycerol, BSA, tRNA, 25 C 2 h; filter binding: 25 mM HEPES-KOH pH 7.9, 110 mM KOAc, 3.5 mM magnesium acetate, 2 mM DTT, BSA, tRNA, 8% glycerol, 25 C 2 h; competition: 18 mM HEPES-KOH pH 7.4, 100 mM KOAc, 3 mM magnesium acetate, 5 mM DTT, 0.01% IGEPAL, tRNA, 25 C 1 h. The note with it: protein: recombinant; tags: FLAG; g2-g7 + t1A.

The target in series [3] is T1, FLAG-Ago1. The series is described as follows: RBNS; miR-11 guide; bulge site analysis; RBNS: 20 mM HEPES-KOH pH 7.9, 100 mM KOAc, 3.5 mM Mg(OAc) (magnesium acetate), 0.05% CHAPS, 2 mM DTT, 8% glycerol, BSA, tRNA, 25 C 2 h; filter binding: 25 mM HEPES-KOH pH 7.9, 110 mM KOAc, 3.5 mM magnesium acetate, 2 mM DTT, BSA, tRNA, 8% glycerol, 25 C 2 h; competition: 18 mM HEPES-KOH pH 7.4, 100 mM KOAc, 3 mM magnesium acetate, 5 mM DTT, 0.01% IGEPAL, tRNA, 25 C 1 h. The settings on record: protein: recombinant; tags: FLAG; g2-g7 + t1A.

Series [4] addresses T1, FLAG-Ago1. The series can be described thus: RBNS; miR-184 guide; RBNS: 20 mM HEPES-KOH pH 7.9, 100 mM KOAc, 3.5 mM Mg(OAc) (magnesium acetate), 0.05% CHAPS, 2 mM DTT, 8% glycerol, BSA, tRNA, 25 C 2 h; filter binding: 25 mM HEPES-KOH pH 7.9, 110 mM KOAc, 3.5 mM magnesium acetate, 2 mM DTT, BSA, tRNA, 8% glycerol, 25 C 2 h; competition: 18 mM HEPES-KOH pH 7.4, 100 mM KOAc, 3 mM magnesium acetate, 5 mM DTT, 0.01% IGEPAL, tRNA, 25 C 1 h. The settings on record: protein: recombinant, tags: FLAG.

For series [5], the target named is T1, FLAG-Ago1. The series is described as follows: RBNS; bantam guide; RBNS: 20 mM HEPES-KOH pH 7.9, 100 mM KOAc, 3.5 mM Mg(OAc) (magnesium acetate), 0.05% CHAPS, 2 mM DTT, 8% glycerol, BSA, tRNA, 25 C 2 h; filter binding: 25 mM HEPES-KOH pH 7.9, 110 mM KOAc, 3.5 mM magnesium acetate, 2 mM DTT, BSA, tRNA, 8% glycerol, 25 C 2 h; competition: 18 mM HEPES-KOH pH 7.4, 100 mM KOAc, 3 mM magnesium acetate, 5 mM DTT, 0.01% IGEPAL, tRNA, 25 C 1 h. The settings on record: protein: recombinant, tags: FLAG.

The target of series [6] is T2, Ago1 (RISC assembled in embryo lysate) (Drosophila melanogaster, UniProt A1Z9J5 1-950). The series can be described thus: competition; let-7 guide (text: 110-fold); RBNS: 20 mM HEPES-KOH pH 7.9, 100 mM KOAc, 3.5 mM Mg(OAc) (magnesium acetate), 0.05% CHAPS, 2 mM DTT, 8% glycerol, BSA, tRNA, 25 C 2 h; filter binding: 25 mM HEPES-KOH pH 7.9, 110 mM KOAc, 3.5 mM magnesium acetate, 2 mM DTT, BSA, tRNA, 8% glycerol, 25 C 2 h; competition: 18 mM HEPES-KOH pH 7.4, 100 mM KOAc, 3 mM magnesium acetate, 5 mM DTT, 0.01% IGEPAL, tRNA, 25 C 1 h. The note with it: protein: native; g2-g21, G:U at g4 and g5.

The target in series [7] is T2, Ago1 (RISC assembled in embryo lysate). The series can be described thus: competition; let-7 guide; nearly same affinity as fully complementary; RBNS: 20 mM HEPES-KOH pH 7.9, 100 mM KOAc, 3.5 mM Mg(OAc) (magnesium acetate), 0.05% CHAPS, 2 mM DTT, 8% glycerol, BSA, tRNA, 25 C 2 h; filter binding: 25 mM HEPES-KOH pH 7.9, 110 mM KOAc, 3.5 mM magnesium acetate, 2 mM DTT, BSA, tRNA, 8% glycerol, 25 C 2 h; competition: 18 mM HEPES-KOH pH 7.4, 100 mM KOAc, 3 mM magnesium acetate, 5 mM DTT, 0.01% …. The settings on record: protein: native; g2-g21, G:U at g4.

The target in series [8] is T1, FLAG-Ago1. The series can be described thus: RBNS; miR-11 guide; RBNS: 20 mM HEPES-KOH pH 7.9, 100 mM KOAc, 3.5 mM Mg(OAc) (magnesium acetate), 0.05% CHAPS, 2 mM DTT, 8% glycerol, BSA, tRNA, 25 C 2 h; filter binding: 25 mM HEPES-KOH pH 7.9, 110 mM KOAc, 3.5 mM magnesium acetate, 2 mM DTT, BSA, tRNA, 8% glycerol, 25 C 2 h; competition: 18 mM HEPES-KOH pH 7.4, 100 mM KOAc, 3 mM magnesium acetate, 5 mM DTT, 0.01% IGEPAL, tRNA, 25 C 1 h. The note with it: protein: recombinant, tags: FLAG.

T1 sequence (A1Z9J5 entry or part of it): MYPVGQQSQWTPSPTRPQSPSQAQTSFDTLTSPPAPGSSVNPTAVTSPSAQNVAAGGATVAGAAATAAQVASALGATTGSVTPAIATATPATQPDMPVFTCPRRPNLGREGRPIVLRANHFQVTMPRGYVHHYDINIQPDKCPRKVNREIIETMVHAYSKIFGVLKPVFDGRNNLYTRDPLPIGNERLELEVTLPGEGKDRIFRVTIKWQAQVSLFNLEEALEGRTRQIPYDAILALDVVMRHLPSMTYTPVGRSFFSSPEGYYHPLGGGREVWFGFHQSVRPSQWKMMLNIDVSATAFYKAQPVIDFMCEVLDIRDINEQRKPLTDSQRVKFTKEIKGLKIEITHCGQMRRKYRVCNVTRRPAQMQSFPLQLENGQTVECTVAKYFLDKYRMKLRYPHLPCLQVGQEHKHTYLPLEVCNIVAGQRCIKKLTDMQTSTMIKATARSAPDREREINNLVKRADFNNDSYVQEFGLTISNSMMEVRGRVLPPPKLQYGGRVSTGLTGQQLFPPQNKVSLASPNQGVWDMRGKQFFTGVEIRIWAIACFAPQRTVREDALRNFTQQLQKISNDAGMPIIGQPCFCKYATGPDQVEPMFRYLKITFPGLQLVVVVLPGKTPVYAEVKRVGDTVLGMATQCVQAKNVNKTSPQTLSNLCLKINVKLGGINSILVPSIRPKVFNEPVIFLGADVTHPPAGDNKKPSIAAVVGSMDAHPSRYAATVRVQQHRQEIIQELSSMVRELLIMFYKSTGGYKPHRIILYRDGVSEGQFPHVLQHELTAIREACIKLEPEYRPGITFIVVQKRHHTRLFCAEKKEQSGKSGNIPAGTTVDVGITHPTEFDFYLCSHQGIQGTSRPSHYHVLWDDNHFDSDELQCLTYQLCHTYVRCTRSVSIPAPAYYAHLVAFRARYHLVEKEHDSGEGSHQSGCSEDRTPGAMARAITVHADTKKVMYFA
T2 sequence (A1Z9J5 entry or part of it): as above

B1: let-7 / 7mer-A1 (dsRNA)
RNA 1: UGAGGUAGUAGGUUGUAUAGU
RNA 2: UACCUCA
modifications: guide 5' phosphate
As a reminder, the Kd is the equilibrium constant for the complex coming apart. On to B1, for which the Kd in the series with FLAG-Ago1 [1] (g2-g7 + t1A) came out at 0.0221 nM.

B2: let-7 / 8mer-b5.6A (dsRNA)
RNA 1: UGAGGUAGUAGGUUGUAUAGU
RNA 2: CUAACCUCA
modifications: guide 5' phosphate
Consider B2, for which the Kd with FLAG-Ago1 [1] (nucleation bulge A between t5 and t6) worked out at 0.12 nM.

B3: miR-11 / 7mer-A1 (dsRNA)
RNA 1: CAUCACAGUCUGAGUUCUUGC
RNA 2: UGUGAUA
modifications: guide 5' phosphate
As for B3, the Kd in the series with FLAG-Ago1 [2] was found to be 0.0812 nM; with FLAG-Ago1 [3] it was 0.07 nM.

B4: let-7 / 8mer (dsRNA)
RNA 1: UGAGGUAGUAGGUUGUAUAGU
RNA 2: CUACCUCA
modifications: guide 5' phosphate
Consider B4, for which the Kd with FLAG-Ago1 [1] (guide g2-g8 + t1A, site in 20-nt random RBNS library) is 0.00173 nM.

B5: miR-184 / 8mer-b5.6C (printed b5.6CA) (dsRNA)
RNA 1: UGGACGGAGAACUGAUAAGGGC
RNA 2: UCCCGUCCA
modifications: guide 5' phosphate
For B5, in the series with FLAG-Ago1 [4] (nucleation bulge C between t5 and t6), the Kd was 0.038 nM.

B6: let-7 / 7mer-m8,w2 (dsRNA)
RNA 1: UGAGGUAGUAGGUUGUAUAGU
RNA 2: CUACCUU
modifications: guide 5' phosphate
Consider B6, for which the Kd with FLAG-Ago1 [1] (G:U at g2) stood at 0.278 nM.

B7: bantam / 6mer-m8 (dsRNA)
RNA 1: UGAGAUCAUUUUGAAAGCUGAUU
RNA 2: UGAUCU
modifications: guide 5' phosphate
On to B7, for which the Kd in the series with FLAG-Ago1 [5] (g3-g8) amounted to 1.01 nM.

B8: let-7 / competitor G:U at g4-g5 (dsRNA)
RNA 1: UGAGGUAGUAGGUUGUAUAGU
RNA 2: GAUACUAUACAACCUACUAUUUCAACCU
modifications: 2'-O-methyl and phosphorothioate at t10-t11
For the molecule B8, the binding signal in series [6] is 120 ± 20 fold Kd vs fully complementary.

B9: let-7 / competitor G:U at g4 (dsRNA)
RNA 1: UGAGGUAGUAGGUUGUAUAGU
RNA 2: GAUACUAUACAACCUACUACUUCAACCU
modifications: 2'-O-methyl and phosphorothioate at t10-t11
For the molecule B9, the binding result in series [7] is reported as “binds”.

B10: miR-11 / 8mer-w8 (dsRNA)
RNA 1: CAUCACAGUCUGAGUUCUUGC
RNA 2: UUGUGAUA
modifications: guide 5' phosphate
With B10, the Kd with FLAG-Ago1 [8] (G:U at g8) was determined as 0.0612 nM.

B11: bantam / 7mer-m8,w2 (dsRNA)
RNA 1: UGAGAUCAUUUUGAAAGCUGAUU
RNA 2: UGAUCUU
modifications: guide 5' phosphate
With B11, the Kd in the series with FLAG-Ago1 [5] (G:U at g2) worked out at 0.866 nM.

B12: bantam / 8mer (dsRNA)
RNA 1: UGAGAUCAUUUUGAAAGCUGAUU
RNA 2: UGAUCUCA
modifications: guide 5' phosphate
B12: in the series with FLAG-Ago1 [5] (g2-g8 + t1A), the Kd was 0.0189 nM.

B13: let-7 / 6mer-m8 (dsRNA)
RNA 1: UGAGGUAGUAGGUUGUAUAGU
RNA 2: CUACCU
modifications: guide 5' phosphate
For the molecule B13, the Kd with FLAG-Ago1 [1] (g3-g8) is 0.328 nM.

B14: let-7 / 8mer-w8 (dsRNA)
RNA 1: UGAGGUAGUAGGUUGUAUAGU
RNA 2: UUACCUCA
modifications: guide 5' phosphate
Regarding B14, the Kd with FLAG-Ago1 [1] (G:U at g8) is 0.0154 nM.

B15: miR-184 / 6mer-m8 (dsRNA)
RNA 1: UGGACGGAGAACUGAUAAGGGC
RNA 2: UCCGUC
modifications: guide 5' phosphate
Consider B15, for which the Kd with FLAG-Ago1 [4] (g3-g8) was determined as 0.321 nM.

B16: miR-184 / 7mer-m8,w2 (dsRNA)
RNA 1: UGGACGGAGAACUGAUAAGGGC
RNA 2: UCCGUCU
modifications: guide 5' phosphate
On to B16, for which, in the series with FLAG-Ago1 [4] (G:U at g2), the Kd is 0.154 nM.

B17: miR-11 / 8mer-b5.6G (dsRNA)
RNA 1: CAUCACAGUCUGAGUUCUUGC
RNA 2: CUGGUGAUA
modifications: guide 5' phosphate
Regarding B17, the Kd in the series with FLAG-Ago1 [8] (nucleation bulge G between t5 and t6) is 0.107 nM.

B18: let-7 / 6mer-A1 (dsRNA)
RNA 1: UGAGGUAGUAGGUUGUAUAGU
RNA 2: ACCUCA
modifications: guide 5' phosphate
As for B18, in the series with FLAG-Ago1 [1] (g2-g6 + t1A), the Kd came out at 0.092 nM.

B19: miR-184 / 8mer-x4C (dsRNA)
RNA 1: UGGACGGAGAACUGAUAAGGGC
RNA 2: UCCGCCCA
modifications: guide 5' phosphate
In the case of B19, the equilibrium dissociation constant (Kd) with FLAG-Ago1 [4] (mismatch at t4) was roughly 0.13 nM.

B20: miR-184 / 7mer-A1 (dsRNA)
RNA 1: UGGACGGAGAACUGAUAAGGGC
RNA 2: CCGUCCA
modifications: guide 5' phosphate
In the case of B20, in the series with FLAG-Ago1 [4] (g2-g7 + t1A), the dissociation constant (Kd) is 0.037 nM.
